In US20220184124A1:

Target: CD19 on Daudi cells (CD19 positive target tumor cells) (UniProt P15391)
Experiment: cell-based or functional assay

Chain of UniProt P15391 (P15391 20-556 limits assumed): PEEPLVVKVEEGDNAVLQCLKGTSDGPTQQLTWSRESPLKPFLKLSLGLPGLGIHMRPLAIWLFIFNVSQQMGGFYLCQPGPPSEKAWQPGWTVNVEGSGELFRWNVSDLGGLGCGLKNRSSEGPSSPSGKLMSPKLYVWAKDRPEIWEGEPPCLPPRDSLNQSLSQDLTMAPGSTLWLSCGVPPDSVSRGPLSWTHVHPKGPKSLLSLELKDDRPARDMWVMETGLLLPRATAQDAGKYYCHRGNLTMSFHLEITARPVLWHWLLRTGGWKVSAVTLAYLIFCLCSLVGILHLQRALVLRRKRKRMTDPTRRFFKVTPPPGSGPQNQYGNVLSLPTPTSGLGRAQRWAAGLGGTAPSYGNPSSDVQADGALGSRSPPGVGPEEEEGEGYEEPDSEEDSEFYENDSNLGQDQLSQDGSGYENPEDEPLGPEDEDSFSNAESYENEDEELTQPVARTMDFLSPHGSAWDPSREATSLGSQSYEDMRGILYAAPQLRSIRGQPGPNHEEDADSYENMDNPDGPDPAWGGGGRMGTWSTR

% CD107a+ of CD4+ T cells, 6 hr co-culture with Daudi cells: 30.4%
% CD107a+ of CD8+ T cells, 6 hr co-culture with Daudi cells: 44.6%
% CD107a+ of NK cells (CD5-CD56+), co-culture with Daudi cells: 32.5%
% CD107a+ of NKT cells, 6 hr co-culture with Daudi cells: 48.6%
% CD107a+ of TCRγδ T cells, co-culture with Daudi cells: 23.2%
% CD107a+ of residual TCRαβ+ cells, 6 hr co-culture with Daudi cells: 64.8%
% IFNγ+ of CD8+ T cells, co-culture with Daudi cells: 16.7%
% IFNγ+ of NKT cells, co-culture with Daudi cells: 24.8%
% IFNγ+ of TCRγδ T cells, co-culture with Daudi cells: 7.46%
% IFNγ+ of residual TCRαβ+ cells, co-culture with Daudi cells: 50.9%
% IL2+ of CD8+ T cells, co-culture with Daudi cells: 0.69%
% IL2+ of NKT cells, co-culture with Daudi cells: 1.07%
% IL2+ of TCRγδ T cells, co-culture with Daudi cells: 0.23%
% IL2+ of residual TCRαβ+ cells, co-culture with Daudi cells: 13.9%
% TNFα+ of CD8+ T cells, co-culture with Daudi cells: 21.5%
% TNFα+ of NKT cells, co-culture with Daudi cells: 28.3%
% TNFα+ of TCRγδ T cells, co-culture with Daudi cells: 12.9%
% TNFα+ of residual TCRαβ+ cells, co-culture with Daudi cells: 50%
Substance: CD19(4G7) scFv/4-1BB/CD3ζ CAR (receptor)
